# B1: FBL (protein, UniProt P22087 1-321, looked up)
# rRNA 2'-O-methyltransferase …: MKPGFSPRGGGFGGRGGFGDRGGRGGRGGFGGGRGRGGGFRGRGRGGGGGGGGGGGGGRGGGGFHSGGNRGRGRGGKRGNQSGKNVMVEPHRHEGVFICRGKEDALVTKNLVPGESVYGEKRVSISEGDDKIEYRAWNPFRSKLAAAILGGVDQIHIKPGAKVLYLGAASGTTVSHVSDIVGPDGLVYAVEFSHRSGRDLINLAKKRTNIIPVIEDARHPHKYRMLIAMVDVIFADVAQPDQTRIVALNAHTFLRNGGHFVISIKANCIDSTASAEAVFASEVKKMQQENMKPQEQLTLEPYERDHAVVVGVYRPPPKVKN
# B2: NEXN (protein, UniProt Q0ZGT2 1-675, looked up)
# Nexilin: MNDISQKAEILLSSSKPVPKTYVPKLGKGDVKDKFEAMQRAREERNQRRSRDEKQRRKEQYIREREWNRRKQEIKEMLASDDEEDVSSKVEKAYVPKLTGTVKGRFAEMEKQRQEEQRKRTEEERKRRIEQDMLEKRKIQRELAKRAEQIEDINNTGTESASEEGDDSLLITVVPVKSYKTSGKMKKNFEDLEKEREEKERIKYEEDKRIRYEEQRPSLKEAKCLSLVMDDEIESEAKKESLSPGKLKLTFEELERQRQENRKKQAEEEARKRLEEEKRAFEEARRQMVNEDEENQDTAKIFKGYRPGKLKLSFEEMERQRREDEKRKAEEEARRRIEEEKKAFAEARRNMVVDDDSPEMYKTISQEFLTPGKLEINFEELLKQKMEEEKRRTEEERKHKLEMEKQEFEQLRQEMGEEEEENETFGLSREYEELIKLKRSGSIQAKNLKSKFEKIGQLSEKEIQKKIEEERARRRAIDLEIKEREAENFHEEDDVDVRPARKSEAPFTHKVNMKARFEQMAKAREEEEQRRIEEQKLLRMQFEQREIDAALQKKREEEEEEEGSIMNGSTAEDEEQTRSGAPWFKKPLKNTSVVDSEPVRFTVKVTGEPKPEITWWFEGEILQDGEDYQYIERGETYCLYLPETFPEDGGEYMCKAVNNKGSAASTCILTIESKN
# B3: KANK1 (protein, UniProt Q14678 1-1352, looked up)
# KN motif and ankyrin repeat …: MAHTTKVNGSASGKAGDILSGDQDKEQKDPYFVETPYGYQLDLDFLKYVDDIQKGNTIKRLNIQKRRKPSVPCPEPRTTSGQQGIWTSTESLSSSNSDDNKQCPNFLIARSQVTSTPISKPPPPLETSLPFLTIPENRQLPPPSPQLPKHNLHVTKTLMETRRRLEQERATMQMTPGEFRRPRLASFGGMGTTSSLPSFVGSGNHNPAKHQLQNGYQGNGDYGSYAPAAPTTSSMGSSIRHSPLSSGISTPVTNVSPMHLQHIREQMAIALKRLKELEEQVRTIPVLQVKISVLQEEKRQLVSQLKNQRAASQINVCGVRKRSYSAGNASQLEQLSRARRSGGELYIDYEEEEMETVEQSTQRIKEFRQLTADMQALEQKIQDSSCEASSELRENGECRSVAVGAEENMNDIVVYHRGSRSCKDAAVGTLVEMRNCGVSVTEAMLGVMTEADKEIELQQQTIESLKEKIYRLEVQLRETTHDREMTKLKQELQAAGSRKKVDKATMAQPLVFSKVVEAVVQTRDQMVGSHMDLVDTCVGTSVETNSVGISCQPECKNKVVGPELPMNWWIVKERVEMHDRCAGRSVEMCDKSVSVEVSVCETGSNTEESVNDLTLLKTNLNLKEVRSIGCGDCSVDVTVCSPKECASRGVNTEAVSQVEAAVMAVPRTADQDTSTDLEQVHQFTNTETATLIESCTNTCLSTLDKQTSTQTVETRTVAVGEGRVKDINSSTKTRSIGVGTLLSGHSGFDRPSAVKTKESGVGQININDNYLVGLKMRTIACGPPQLTVGLTASRRSVGVGDDPVGESLENPQPQAPLGMMTGLDHYIERIQKLLAEQQTLLAENYSELAEAFGEPHSQMGSLNSQLISTLSSINSVMKSASTEELRNPDFQKTSLGKITGNYLGYTCKCGGLQSGSPLSSQTSQPEQEVGTSEGKPISSLDAFPTQEGTLSPVNLTDDQIAAGLYACTNNESTLKSIMKKKDGNKDSNGAKKNLQFVGINGGYETTSSDDSSSDESSSSESDDECDVIEYPLEEEEEEEDEDTRGMAEGHHAVNIEGLKSARVEDEMQVQECEPEKVEIRERYELSEKMLSACNLLKNTINDPKALTSKDMRFCLNTLQHEWFRVSSQKSAIPAMVGDYIAAFEAISPDVLRYVINLADGNGNTALHYSVSHSNFEIVKLLLDADVCNVDHQNKAGYTPIMLAALAAVEAEKDMRIVEELFGCGDVNAKASQAGQTALMLAVSHGRIDMVKGLLACGADVNIQDDEGSTALMCASEHGHVEIVKLLLAQPGCNGHLEDNDGSTALSIALEAGHKDIAVLLYAHVNFAKAQSPGTPRLGRKTSPGPTHRGSFD
# B4: LMNB1 (protein, UniProt P20700 2-583, looked up)
# Lamin-B1: ATATPVPPRMGSRAGGPTTPLSPTRLSRLQEKEELRELNDRLAVYIDKVRSLETENSALQLQVTEREEVRGRELTGLKALYETELADARRALDDTARERAKLQIELGKCKAEHDQLLLNYAKKESDLNGAQIKLREYEAALNSKDAALATALGDKKSLEGDLEDLKDQIAQLEASLAAAKKQLADETLLKVDLENRCQSLTEDLEFRKSMYEEEINETRRKHETRLVEVDSGRQIEYEYKLAQALHEMREQHDAQVRLYKEELEQTYHAKLENARLSSEMNTSTVNSAREELMESRMRIESLSSQLSNLQKESRACLERIQELEDLLAKEKDNSRRMLTDKEREMAEIRDQMQQQLNDYEQLLDVKLALDMEISAYRKLLEGEEERLKLSPSPSSRVTVSRASSSRSVRTTRGKRKRVDVEESEASSSVSISHSASATGNVCIEEIDVDGKFIRLKNTSEQDQPMGGWEMIRKIGDTSVSYKYTSRYVLKAGQTVTIWAANAGVTASPPTDLIWKNQNSWGTGEDVKVILKNSQGEEVAQRSTVFKTTIPEEEEEEEEAAGVVVEEELFHQQGTPRASNRSC
# B5: HNRNPA0 (protein, UniProt Q13151 1-305, looked up)
# Heterogeneous nuclear …: MENSQLCKLFIGGLNVQTSESGLRGHFEAFGTLTDCVVVVNPQTKRSRCFGFVTYSNVEEADAAMAASPHAVDGNTVELKRAVSREDSARPGAHAKVKKLFVGGLKGDVAEGDLIEHFSQFGTVEKAEIIADKQSGKKRGFGFVYFQNHDAADKAAVVKFHPIQGHRVEVKKAVPKEDIYSGGGGGGSRSSRGGRGGRGRGGGRDQNGLSKGGGGGYNSYGGYGGGGGGGYNAYGGGGGGSSYGGSDYGNGFGGFGSYSQHQSSYGPMKSGGGGGGGGSSWGGRSNSGPYRGGYGGGGGYGGSSF
# B6: GAPVD1 (protein, UniProt Q14C86 1-1478, looked up)
# GTPase-activating protein and …: MVKLDIHTLAHHLKQERLYVNSEKQLIQRLNADVLKTAEKLYRTAWIAKQQRINLDRLIITSAEASPAECCQHAKILEDTQFVDGYKQLGFQETAYGEFLSRLRENPRLIASSLVAGEKLNQENTQSVIYTVFTSLYGNCIMQEDESYLLQVLRYLIEFELKESDNPRRLLRRGTCAFSILFKLFSEGLFSAKLFLTATLHEPIMQLLVEDEDHLETDPNKLIERFSPSQQEKLFGEKGSDRFRQKVQEMVESNEAKLVALVNKFIGYLKQNTYCFPHSLRWIVSQMYKTLSCVDRLEVGEVRAMCTDLLLACFICPAVVNPEQYGIISDAPINEVARFNLMQVGRLLQQLAMTGSEEGDPRTKSSLGKFDKSCVAAFLDVVIGGRAVETPPLSSVNLLEGLSRTVVYITYSQLITLVNFMKSVMSGDQLREDRMALDNLLANLPPAKPGKSSSLEMTPYNTPQLSPATTPANKKNRLPIATRSRSRTNMLMDLHMDHEGSSQETIQEVQPEEVLVISLGTGPQLTPGMMSENEVLNMQLSDGGQGDVPVDENKLHGKPDKTLRFSLCSDNLEGISEGPSNRSNSVSSLDLEGESVSELGAGPSGSNGVEALQLLEHEQATTQDNLDDKLRKFEIRDMMGLTDDRDISETVSETWSTDVLGSDFDPNIDEDRLQEIAGAAAENMLGSLLCLPGSGSVLLDPCTGSTISETTSEAWSVEVLPSDSEAPDLKQEERLQELESCSGLGSTSDDTDVREVSSRPSTPGLSVVSGISATSEDIPNKIEDLRSECSSDFGGKDSVTSPDMDEITHGAHQLTSPPSQSESLLAMFDPLSSHEGASAVVRPKVHYARPSHPPPDPPILEGAVGGNEARLPNFGSHVLTPAEMEAFKQRHSYPERLVRSRSSDIVSSVRRPMSDPSWNRRPGNEERELPPAAAIGATSLVAAPHSSSSSPSKDSSRGETEERKDSDDEKSDRNRPWWRKRFVSAMPKAPIPFRKKEKQEKDKDDLGPDRFSTLTDDPSPRLSAQAQVAEDILDKYRNAIKRTSPSDGAMANYESTGDNHDRDLSSKLLYHSDKEVMGDGESAHDSPRDEALQNISADDLPDSASQAAHPQDSAFSYRDAKKKLRLALCSADSVAFPVLTHSTRNGLPDHTDPEDNEIVCFLKVQIAEAINLQDKNLMAQLQETMRCVCRFDNRTCRKLLASIAEDYRKRAPYIAYLTRCRQGLQTTQAHLERLLQRVLRDKEVANRYFTTVCVRLLLESKEKKIREFIQDFQKLTAADDKTAQVEDFLQFLYGAMAQDVIWQNASEEQLQDAQLAIERSVMNRIFKLAFYPNQDGDILRDQVLHEHIQRLSKVVTANHRALQIPEVYLREAPWPSAQSEIRTISAYKTPRDKVQCILRMCSTIMNLLSLANEDSVPGADDFVPVLVFVLIKANPPCLLSTVQYISSFYASCLSGEESYWWMQFTAAVEFIKTIDDRK
# B7: PHB (protein, UniProt P35232 2-272, looked up)
# Prohibitin 1: AAKVFESIGKFGLALAVAGGVVNSALYNVDAGHRAVIFDRFRGVQDIVVGEGTHFLIPWVQKPIIFDCRSRPRNVPVITGSKDLQNVNITLRILFRPVASQLPRIFTSIGEDYDERVLPSITTEILKSVVARFDAGELITQRELVSRQVSDDLTERAATFGLILDDVSLTHLTFGKEFTEAVEAKQVAQQEAERARFVVEKAEQQKKAAIISAEGDSKAAELIANSLATAGDGLIELRKLEAAEDIAYQLSRSRNITYLPAGQSVLLQLPQ
# System: GFP-14-3-3β and its binding proteins
# Experiment: GFP-14-3-3β co-IP with LC-MS/MS label-free quantification, untreated versus PP1c-treated
# Set-up: species or system human
# Details: PP1 vs untreated; LFQ intensities, replicates 1-3
row,Molecule,"Difference (log2), PP1 vs untreated [log2]"
1,B1,-1.367
2,B2,-1.398
3,B3,-1.352
4,B4,-1.41
5,B5,-1.439
6,B6,-1.38

# Same assay, conditions: log2 difference; pairwise comparison PP1 vs untreated, label-free quantification, 3 replicates each
row,Molecule,"Difference (log2), PP1 vs untreated"
1,B7,1.5807

# System: GFP-14-3-3β
# Experiment: GFP-14-3-3β co-IP with LC-MS/MS, untreated GFP-14-3-3β versus GFP control (14-3-3 interactome)
# Assay type: binding, human
# Details: log2 difference; pairwise comparison untreated vs GFP, label-free quantification, 3 replicates each
row,Molecule,"Difference (log2), untreated vs GFP"
1,B7,1.469

# Same assay, conditions: untreated vs GFP; LFQ intensities, replicates 1-3
row,Molecule,"Difference (log2), untreated vs GFP [log2]"
1,B1,2.48
2,B2,0.832
3,B3,3.839
4,B4,2.359
5,B5,3.698
6,B6,4.189

# From article PMC7367873, “Dissecting the sequence determinants for dephosphorylation by the catalytic subunits of phosphatases PP1 and PP2A” (Nature Communications, 2020)
